Source: patent US6379665B1, “Phospholipase D polypeptide and DNA sequences” (Onyx Pharmaceuticals, Inc., priority 1996, dated 2002)

B1: hPLD1a: human phospholipase D1a, approximately 1074 amino acid protein, SEQ ID NO:2 (protein, listed as Homo sapiens)
chain: MSLKNEPRVNTSALQKIAADMSNIIENLDTRELHFEGEEVDYDVSPSDPKIQEVYIPFSAIYNTQGFKEPNIQTYLSGCPIKAQVLEVERFTSTTRVPSINLYTIELTHGEFKWQVKRKFKHFQEFHRELLKYKAFIRIPIPTRRHTFRRQNVREEPREMPSLPRSSENMIREEQFLGRRKQLEDYLTKILKMPMYRNYHATTEFLDISQLSFIHDLGPKGIEGMIMKRSGGHRIPGLNCCGQGRACYRWSKRWLIVKDSFLLYMKPDSGAIAFVLLVDKEFKIKVGKKETETKYGIRIDNLSRTLILKCNSYRHARWWGGAIEEFIQKHGTNFLKDHRFGSYAAIQENALAKWYVNAKGYFEDVANAMEEANEEIFITDWWLSPEIFLKRPVVEGNRWRLDCILKRKAQQGVRIFIMLYKEVELALGINSEYTKRTLMRLHPNIKVMRHPDHVSSTVYLWAHHEKLVIIDQSVAFVGGIDLAYGRWDDNEHRLTDVGSVKRVTSGPSLGSLPPAAMESMESLRLKDKNEPVQNLPIQKSIDDVDSKLKGIGKPRKFSKFSLYKQLHRHHLHDADSISSIDSTSSYFNHYRSHHNLIHGLKPHFKLFHPSSESEQGLTRPHADTGSIRSLQTGVGELHGETRFWHGKDYCNFVFKDWVQLDKPFADFIDRYSTPRMPWHDIASAVHGKAARDVARHFIQRWNFTKIMKSKYRSLSYPFLLPKSQTTAHELRYQVPGSVHANVQLLRSAADWSAGIKYHEESIHAAYVHVIENSRHYIYIENQFFISCADDKVVFNKIGDAIAQRILKAHRENQKYRVYVVIPLLPGFEGDISTGGGNALQAIMHFNYRTMCRGENSILGQLKAELGNQWINYISFCGLRTHAELEGNLVTELIYVHSKLLIADDNTVIIGSANINDRSMLGKRDSEMAVIVQDTETVPSVMDGKEYQAGRFARGLRLQCFRVVLGYLDDPSEDIQDPVSDKFFKEVWVSTAARNATIYDKVFRCLPNDEVHNLIQLRDFINKPVLAKEDPIRAEEELKKIRGFLVQFPFYFLSEESLLPSVGTKEAIVPMEVWT
B2: mPLD2: murine phospholipase D2, approximately 932 amino acid protein, SEQ ID NO:8 (protein, UniProt P97813 1-933, looked up)
Phospholipase D2: MTVTQKNLFPYGDYLNSSQLHMEPDEVDTLREGEDPADRMHPYLAIYDLQPLKAHPLVFAPGVPVIAQVVGTERYTSGSKVGTCTLYSVRLTHGDFTWTTKKKFRHFQELHRDLQRHKVLMSLLPLARFAVTHSPAREAAAEDIPSLPRGGSEGSARHTASKQKYLENYLNRLLTMSFYRNYHAMTEFLEVSQLSFIPDLGSKGLEGVIRKRSGGHRVPGFTFCGRDQVCYRWSKRWLVVKDSFLLYMRPETGAISFVQLFDPGFEVQVGKRSTETRYGVRIDTSHRSLILKCSSYRQARWWGQEITELAQGSGRDFLQLHQHDSYAPPRPGTLARWFVNGAGYFAAVADAILRAQEEIFITDWWLSPEIYLKRPAHSDDWRLDIMLKRKAEEGVRVSILLFKEVELALGINSGYSKRTLMLLHPNIKVMRHPDLVTLWAHHEKLLVVDQVVAFLGGLDLAFGRWDDVQYRLTDLGDPSEPVHLQTPTLGSDPAATPDLSHNQFFWLGKDYSNLITKDWVQLDRPFEDFIDRETTPRMPWRDVGVVVHGVAARDLARHFIQRWNFTKTTKARYKTPLYPYLLPKSTSTANNLPFMIPGGQCATVQVLRSVDRWSAGTLENSILNAYLHTIRESQHFLYIENQFFISCSDGRTVLNKVGDEIVDRILKAHEQGQCFRVYLLLPLLPGFEGDISTGGGNSIQAILHFTYRTLCRGEHSILHRLKAAMGTAWRDYMSICGLRTHGELGGHPISELIYIHSKMLIADDRTVIIGSANINDRSLLGKRDSELAILIKDTEMEPSLMDGVEYQAGRFALSLRKHCFSVILGANTWPDLDLRDPVCDDFFQLWQETAENNATIYEQIFRCLPSNATRSLRALREYVAVESLATVSPSLAQSELAHIQGHLVHFPLKFLEDESLLPPLGSKEGMIPLEVWT

Key:
[1] = standard headgroup release assay, fractions of hPLD1a baculovirus-infected Sf9 cells; type: biochemical; conditions: Sf9 cells infected 48 hours
Protocol: To determine the activity encoded by recombinant hPLD1a, control and hPLD1a-encoding baculovirus-infected Sf9 cells were assessed using a standard headgroup release assay that measures the amount of tritiated headgroup (e.g. [^3H]choline) liberated by hydrolysis of the labeled substrate [^3H]PC. The assay procedure measures release of the choline headgroup from the radiolabeled PC and is based on a protocol previously described in Brown, Cell 75:1137-44 (1993). Using standard separation techniques, cytosolic and membrane fractions were prepared from uninfected Sf9 cells or Sf9 cells infected for 48 hours with the hPLD1 expressing baculovirus vector. Sf9 cells infected with native baculovirus vector or PLC-expressing baculovirus vector yielded modest PLD activity levels similar to untransfected cells.

[2] = substrate specificity and transphosphatidylation assay of hPLD1a; type: biochemical
Protocol: Samples of the reaction products were applied to a 1 ml HPLC column of Source 15S resin (Pharmacia Biotech Inc.) and washed with 10 ml of H2O and eluted with a 30 ml linear gradient of 0-1 M CH3COONH4 in water at a flow rate of 1 ml/min. 1 ml fractions were collected and their radioactivity determined by liquid scintillation counting. Compounds were identified by reference to authentic standards. For analysis of phospholipid products, the vescicles were of standard composition except that approximately 10-20×10^3 dpm of [^32P]PC, [^32P]PE or [^32P]PI (specific radioactivity 10,000 dpm/nmol) was substituted for the [^3H]PC. Incubations were exactly as described except that transphosphatidylation assay contained 2% v/v EtOH. The assays were terminated by addition of 232 l of 1:1 CHCl2, MeOH. After mixing and centrifugation, the lower phases were removed, dried under vacuum, and analyzed by TLC on oxalate-impregnated Whatman 60A silica gel plates in a solvent system of CHCl2, MeOH:acetic acid (13:3:1, v/v). […]
To assess hPLD1a's substrate specificity, the standard PLD assay was carried out using [^32P]PE and [^32P]PI following the method as describe in Brown, Cell 75: 1137-44 (1993). […] To determine whether hPLD1a was capable of transphosphatidylase activity, EtOH was added to the reaction mixture and the products analyzed by thin layer chromatography. […]

[3] = system: HL-60 cells; test: RT-PCR quantification of hPLD1a and hPLD1b during dbcAMP-induced HL-60 cell differentiation; type: cell-based, human; conditions: 0.5 mM dbcAMP
Protocol: To analyze changes in the levels of hPLD1 a and hPLD1b during HL-60 cell differentiation induced by dcbAMP, HL-60 cells maintained in RPMI-1640 medium supplemented with 10% fetal bovine serum, 100 units/ml penicillin and 100 µg/ml streptomycin in a humidified atmosphere containing 5% CO2, at 37 C. were grown in RPMI-1640 medium without fetal bovine serum for 24 hours. Differentiation was initiated by the addition of 0.5 mM dbcAMP. Levels of PLD1a and PLD1b were quantified by RT-PCR. Total RNA was isolated from the HL-60 cells at the exponential growth stage by the acid guanidine thiocyanate method following the protocol of Chomczynski, Anal. Biochem. 162: 156-62(1992). Two g of RNA was reverse transcribed by using random hexamer mixed primers. The number of amplification cycles were determined to individual primer sets in order to maintain exponential rate of product amplification. Amplified DNA fragments were subjected to electrophoresis on 1.5% agarose gel and visualized by ethidium bromide staining. The intensity of bands was quantified by a densitometer (Atto Densitograph, Tokyo, Japan). Primer A (Forward): nucleotides 1475 through 1491; primer B (reverse) nucleotides 2133 through 2113 of SEQ ID NO: 1. Amplification conditions used were 94 C. for 30 seconds, 60 C. for 1 minute, and 72 C. for 1 minute; 25-27 cycles.

[4] = system: COS-7 cells; test: standard headgroup assay of extracts of COS-7 cells transfected with mPLD2; type: biochemical; conditions: pCGN expression vector
Protocol: Human PLD1a was also expressed in COS-7 cells. A fragment of the hPLD1a cDNA encoding the entire open reading frame (nucleotides 93 through 3603 of the cDNA) was subcloned in-frame downstream of the cytomegalovirus promoter and the Flu epitope tag in the mammalian expression vector pCGN. COS-7 cells were transfected with 3 g of the resulting plasmid, pFlu-hPLD1, using lipofectamine (Life Technologies, Inc.). Forty-eight hours later, the cells were assayed for PLD activity in the standard headgroup assay referenced below. The time course of choline release varied linearly over time and in proportion to the amount of protein added.
mPLD2 activity was assessed as described in Example 3 for hPLD1. The mPLD2 protein coding sequence was subcloned in pCGN, an expression vector containing a CMV promoter, flu-epitope tag and an SV40 polyadenylation signal sequence. See Example 3. […] The protein coding sequence of mPLD2 was also subcloned in a baculovirus vector following the protocol of Example 3. mPLD2 activity was successfully detected using the procedures described in Example 3.

Row | Molecule | cytosolic PLD activity above control ([1]; cytosolic fraction) [fold] | membrane-associated PLD activity above control ([1]; membrane fraction) [fold] | transphosphatidylase activity ([2]; EtOH added, [^32P]PC, TLC) | hydrolysis of PE or PI ([2]; [^32P]PE and [^32P]PI as substrates) | increase in level (printed as activity) on day 1 ([3]; day 1, RT-PCR) | increase in level (printed as activity) on day 2 ([3]; day 2, RT-PCR) | increase in level (printed as activity) on day 3 ([3]; day 3, RT-PCR) | PLD activity in transfected COS-7 cell extracts [4]
1 | B1 | 32 | 15 | catalyzes the formation of [^32P]phosphatidylethanol | unable to hydrolyze PE or PI | approximately 3 fold | approximately 4 fold | less than 4 fold | –
2 | B2 | – | – | – | – | – | – | – | far above COS-7 background levels
